Assay [1] deals with T1, shCD131 M340A (human, UniProt P32927 17-438).
T1 construct: C-terminal 6xHis
T1 sequence: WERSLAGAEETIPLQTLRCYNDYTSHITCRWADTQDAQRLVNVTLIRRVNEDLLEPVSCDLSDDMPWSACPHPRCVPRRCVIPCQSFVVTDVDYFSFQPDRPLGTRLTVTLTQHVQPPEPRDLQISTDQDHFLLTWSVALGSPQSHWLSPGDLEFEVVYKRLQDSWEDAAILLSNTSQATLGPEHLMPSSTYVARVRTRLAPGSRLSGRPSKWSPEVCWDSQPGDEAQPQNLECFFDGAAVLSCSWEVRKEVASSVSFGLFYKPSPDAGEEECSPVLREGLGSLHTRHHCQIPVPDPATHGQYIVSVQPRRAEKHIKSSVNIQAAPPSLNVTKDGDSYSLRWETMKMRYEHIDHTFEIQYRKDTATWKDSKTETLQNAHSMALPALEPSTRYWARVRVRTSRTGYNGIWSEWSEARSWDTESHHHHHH
Kind of assay: SPR, steady state, Fab over captured mutant. The procedure: (§1) For some analysis purified Fab was injected over each flow cell for 3 minutes and dissociation was monitored for a further 10 minutes. Regeneration of the surface was performed after each cycle with a 40 second injection of 25 mM glycine, pH 2.0. The analysis was performed with Fabs at several concentrations between 100 and 0.31 nM, with each concentration analyzed twice and in random order. The analysis was performed at a flow rate of 30 μl/min in HBS-EP buffer (10 mM Hepes, 150 mM NaCl, 3 mM EDTA, 0.005% Tween 20, pH 7.4) at 37° C. Responses from spots 2 and 4 of each flow cell, (in which shβc was not captured, but otherwise treated identically), were subtracted from those of spots 1 and 5 respectively to produce reference subtracted data. Reference subtracted responses from a blank injection comprising buffer alone were subtracted from the resultant sensorgrams to produce double referenced data suitable for kinetic analysis. Double-referenced sensorgrams were fitted using non-linear regression to a model describing 1:1 kinetics, including a term for mass transport limitation. The Rₘₐₓ value was fitted locally to account for slight deviations in the level of sCD131 captured, with association rate (kₐ), dissociation rate (kd) and equilibrium dissociation constant (KD) fitted globally.
(§2) Mapping of the shCD131 epitope was performed by measurement of the affinity of Fabs for various alanine point mutants of shCD131 essentially as described above, with the following exceptions. Each shCD131 mutant was captured for 120 seconds at concentrations between 1 and 5 μg/ml. For kinetic analysis, purified recombinant Fabs were injected for 2 minutes, and dissociation was monitored for a further 2 minutes. […] Fab concentrations ranged from 16 μM to 3.9 nM in two-fold dilutions. The assays were conducted at 25° C. All sensorgrams were reference subtracted as described above. For determination of steady-state affinity (KD only), the response at the end of the binding phase was used to fit the data to a single-site binding model. Kinetic parameters were determined as described above.

Assay [2] addresses T2, shCD131 S102A (human, UniProt P32927 17-438).
T2 construct: C-terminal 6xHis
T2 sequence: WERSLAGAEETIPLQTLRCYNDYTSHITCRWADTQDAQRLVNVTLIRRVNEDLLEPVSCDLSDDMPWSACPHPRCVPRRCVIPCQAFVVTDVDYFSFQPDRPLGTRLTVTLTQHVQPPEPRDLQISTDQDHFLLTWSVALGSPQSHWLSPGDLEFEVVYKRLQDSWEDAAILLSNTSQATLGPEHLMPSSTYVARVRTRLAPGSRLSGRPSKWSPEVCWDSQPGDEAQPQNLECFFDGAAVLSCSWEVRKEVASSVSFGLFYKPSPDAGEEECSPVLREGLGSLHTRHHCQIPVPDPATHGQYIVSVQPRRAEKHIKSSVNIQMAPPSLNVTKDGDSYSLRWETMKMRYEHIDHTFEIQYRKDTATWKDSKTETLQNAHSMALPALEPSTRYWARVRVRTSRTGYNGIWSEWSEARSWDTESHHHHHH
Put plainly: SPR, steady state, Fab over captured mutant. The procedure: as §1, §2
Background: In SPR one partner is held on a chip, and binding of the other changes the refractive index at the surface.

The target in assay [3] is T3, shCD131 V108A (human, UniProt P32927 17-438).
T3 construct: C-terminal 6xHis
T3 sequence: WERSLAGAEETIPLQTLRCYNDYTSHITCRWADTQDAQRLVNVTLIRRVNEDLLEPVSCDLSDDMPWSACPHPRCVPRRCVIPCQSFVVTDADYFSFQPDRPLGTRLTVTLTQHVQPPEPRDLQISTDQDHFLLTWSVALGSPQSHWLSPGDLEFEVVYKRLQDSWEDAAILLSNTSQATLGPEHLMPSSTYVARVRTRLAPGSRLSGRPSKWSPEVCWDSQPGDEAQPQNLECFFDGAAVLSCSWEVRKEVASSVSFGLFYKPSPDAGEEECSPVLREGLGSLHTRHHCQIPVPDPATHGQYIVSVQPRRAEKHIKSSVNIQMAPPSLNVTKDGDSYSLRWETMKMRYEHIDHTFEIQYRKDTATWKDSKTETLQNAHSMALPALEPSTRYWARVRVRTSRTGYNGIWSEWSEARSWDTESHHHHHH
Kind of assay: SPR, kinetics, Fab over captured mutant. The procedure:
As shβc is a dimer, kinetics assays were performed with shβc captured on the sensor surface, and purified Fab injected as the analyte. Avidity effects were avoided by the use of Fab rather than whole IgG.
as §1, with “shCD131 was captured on spots 1 and 5 of each flow cell for 2 minutes at a concentration of 0.4 μg/ml. […] For” for “For”
Mapping of the shCD131 epitope was performed by measurement of the affinity of Fabs for various alanine point mutants of shCD131 essentially as described above, with the following exceptions. Each shCD131 mutant was captured for 120 seconds at concentrations between 1 and 5 μg/ml. For kinetic analysis, purified recombinant Fabs were injected for 2 minutes, and dissociation was monitored for a further 2 minutes. […] Fab concentrations ranged from 16 μM to 3.9 nM in two-fold dilutions.

B1: 9A2 Fab (Fab, V domains shown)
VH: EVQLLESGGGLVQPGGSLRLSCAASGFTFSHYHMLWVRQAPGKGLEWVSSIRSSGGFTYYADSVKGRFTISRDNSKNTLYLQMNSLRAEDTAVYYCARFYDSFFDIWGQGTMVTVSS
VL: DIQMTQSPSSVSASVGDRVTITCRASQGISSWLAWYQQKPGKAPKLLIYAASSLQSGVPSRFSGSGSGTDFTLTISSLQPEDFATYYCQQANSFPITFGQGTRLEIKR
notes: also called recombinant Fab of 9A2
With B1, the values for the dissociation constant Kd in assay [1], in assay [2] and in assay [3] were 235 nM, 324 nM and 83 nM, respectively.

As usually defined, the Kd is the constant that tells how readily two partners part at equilibrium. A higher Kd goes with weaker binding.

Values taken from patent publication US20190062438A1 (CSL, published 2019).
